Patent US20050095616A1

Columns and labels:
[1] = system: IκB(S32A, S36A)-Bla mutant fusion protein
[2] = biological target: IκBα-beta-lactamase (IκBα-Bla) fusion protein, wild type (N-terminal IκBα and C-terminal Bla); experiment: cell-based or functional assay
proteasome = experiment: cell-based or functional assay

With IκB kinase (IKK) the “decrease in β-lactamase activity in response to TNFα treatment (10 ng/ml, 30 minutes)” value [1] was “the mutation of serines-32 and -36 abolished the decrease in β-lactamase activity in response to TNFα treatment”.

IκB kinase (IKK) (enzyme) gave a decrease in β-lactamase activity of Jurkat IκB-Bla cells after 10 ng/ml TNFα [2] of 2 fold.

In the case of ALLN (peptide), the IC50 for inhibition of the TNFα-stimulated decrease in reporter levels (proteasome) is reported as 5 µM.
